Measurements taken from the supplement of paper PMC9170038.

Test system: MS2 coat protein
Experiment: apparent KD of MS2 coat protein; designed switch direction (-1 OFF switch, 1 ON switch): -1; higher = weaker reporter binding
Outline: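 Three titration conditions were used: no input, 200 uM small-molecule ligand, and an oligonucleotide input. In each, SNAP-549-labelled MS2 coat protein was raised from 0.7 or 1.5 nM, doubling, to 3 µM over designed RNA switches transcribed on Illumina chips by stalled E. coli RNA polymerase. Curve fits of normalised cluster fluorescence gave values whose per-design median over clusters is the apparent KD.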

[1] = Eterna round: R95, input ligand: microRNA oligo, concentration not stated
[2] = input ligand: microRNA oligo, concentration not stated
[3] = Eterna round: R95, input ligand: FMN 200 uM
[4] = Eterna round: R95, input ligand: none

Row | Sequence | apparent KD of MS2 coat protein [1] [nM] | apparent KD of MS2 coat protein (input ligand: FMN 200 uM) [nM] | apparent KD of MS2 coat protein (input ligand: none) [nM] | apparent KD of MS2 coat protein [2] [nM] | apparent KD of MS2 coat protein [3] [nM] | apparent KD of MS2 coat protein [4] [nM]
1 | GCGCACUAAGUGAGGAUAUCGAUUUCUUUAAGGAUCGAGAAGGCACAUGAGGAUCACCCAUGUUUGACGUGCGC [JR_BMOE4_Sub097] (puzzle: Brourd's mod of Exclusion 4) | 15.5 |  |  |  |  | 
2 | UCAUGUCCUGAGGAUAUCAAAGUCCUCCCGACAUGAGAAGGCAGGACAUGAGGAUCACCCAUGUGGAGCAGGGA [Sorareardi] (Eterna round: R97, puzzle: Exclusion 6) |  | 10.3 | 353 |  |  | 
3 | AAUAACAGAGGAUAUACUAUUUUAUGUGUUUAUUGUUUUAAACAUGAGGAUCACCCAUGUAGAAGGCUGAUUAA [JMF 45] (puzzle: Exclusion 2) | 61.9 |  |  |  |  | 
4 | AACUCACGUUCAGGAUAUCGCGUUCCAAAGACAUGAGAAGGGAACAUGAGGAUCACCCAUGUGCCCGGUCUCAGACCGGGCUUC [Cetein] (Eterna round: R96, puzzle: Exclusion NG 1) |  | 328 | 88.8 | 76 |  | 
5 | AUCCGACAUGAGGAUCACCCAUGUCAGGAUAUGGACUGACAUCGAAAGGAUGGAAGAACCAGAAGGGACUGGGC [Betiqu] (Eterna round: R96, puzzle: Exclusion 1) |  | 71.7 | 20.1 | 17.1 |  | 
6 | AGUACUAUCACGAAAGUGAUAGUACAAAUAGCAAGUGAAACAUGAGGAUCACCCAUGUCCUCAUUUGCUCGUCUUAA [Mat - Sensor v2 -ver2- JL mod - D66] (Eterna round: R96, puzzle: Sensor v2, turn-off variant 2) |  | 12.6 | 14.3 | 320 |  | 
7 | AAGUAGCAUGCAGGAUAUGGUAAUCGAACGUUACCAGAAGGGCAUGAGGAUCACCCAUGUUCUCAUUUGUAAGAACAGAUGUCU [Ex NG1 #7] (Eterna round: R96, puzzle: Exclusion NG 1) |  | 251 | 94.4 | 110 |  | 
8 | ACGUUCAUUGAACAUGAGGAUCACCCAUGUGGCCUCCGGGUGGAGGAUAUGCACCAGGCCGAGGUGUAGAAGGCCAUAUACCGA [Riraed] (Eterna round: R96, puzzle: Exclusion NG 3) |  | 155 | 81.4 | 49 |  | 
9 | CUCGUGCAGCAAAGCUGUACGAGUACAUGAGGAUCACCCAUGUAGGAUAUGGUACGCAAAGCGUGCUAGAAGGAUAUGUGAAGG [Mat - Exclusion NG 3 - Mod of JL - D88] (Eterna round: R96, puzzle: Exclusion NG 3) |  | 49.4 | 51.5 | 36.2 |  | 
10 | UAAACAUGGAUAUAACAGUACAUGAGGAUCACCCAUGUUAAUAUGAUAAAUUAUAACAAGUUUUUUUGUCGUCUUAA [Feeding at the Trough] (Eterna round: R97, puzzle: Sensor, turn-off variant 1) |  | 47 | 190 |  |  | 
11 | UAGAAUCGAGGAUAUACAUGAGGAUCACCCAUGUGUGGCCACACGGUGUGGUCGUCAGGUAGAAGGCGAUUACA [Exclusion 3 - Mod of Jieux's Gilly Gone Silly 23 v.3] (puzzle: Exclusion 3) | 22.8 |  |  |  | 19.9 | 53.2
12 | UGCAAGCUUUUAAGAUCCUACAUGAGGAUCACCCAUGUGGCUCGUCUUAUACGUACUGUGACGAAAGUCACGGUACG [JL TOV1 3.98] (Eterna round: R97, puzzle: Sensor, turn-off variant 1) |  | 25.4 | 22.8 |  |  | 
13 | ACAGCGUGAGGAUAUACAUGAGGAUCACCCAUGUAUGGCAGGUUAUCCUGUCGUAAGUGUAGAAGGCACGCUGU [Exclusion 3 - Oddities v.4 ( A small slide from ms2 to fmn)] (puzzle: Exclusion 3) | 18.8 |  |  |  |  | 
14 | UUGAUGUGAGGAUAUAUUUAGUGUUUUCUUUAUGUUUUAUAACUUGAGGAUCACCCAAGUAGAAGGCGCUACGU [JR_Ex2_Sub066] (Eterna round: R97, puzzle: Exclusion 2) |  | 19 | 13.9 |  |  | 
15 | GUUUUCAGACGGAGAUCCUACAUGAGGAUCACCCAUGUCUCACAAGCUAAUUGCUCGUCUUAUUCUCCUCUGUUCUC [Elimod 40 - Jieux - Sensor, turn-off variant 1] (Eterna round: R97, puzzle: Sensor, turn-off variant 1) |  | 21.8 | 24.3 |  |  | 
16 | GAUAGAGAGCAGGAUAUCUUGGGUAAGUAUCGUAGAGAAGGGCUCACAUGAGGAUCACCCAUGUGGUCCUAGAU [JL Dibiri mod 03] (puzzle: Exclusion 6) | 11.5 |  |  |  |  | 
17 | AUAACGAUAGUCAGGAUAUCGGUGGCAUCCGUCACCGAGAAGGGACAUGAGGAUCACCCAUGUUAAGCCUAUGA [Eternabot (L1) Solution 69] (Eterna round: R97, puzzle: Brourd's mod of Exclusion 4) |  | 11.5 | 19.3 |  |  | 

Row | Sequence | apparent KD of MS2 coat protein [1] [nM] | apparent KD of MS2 coat protein (input ligand: FMN 200 uM) [nM] | apparent KD of MS2 coat protein (input ligand: none) [nM] | apparent KD of MS2 coat protein [2] [nM] | apparent KD of MS2 coat protein [3] [nM] | apparent KD of MS2 coat protein [4] [nM]
18 | AAUAAUCGGGCCUUCCUAAUACAUGAGGAUCACCCAUGUCUCGAGGAUAUACCAACGCACGGUCCGUAGAAGGCGAGACCACAC [Vesoonso] (Eterna round: R96, puzzle: Exclusion NG 3) |  | 24.2 | 21.9 | 13.2 |  | 
19 | GCAGCAUAGUAUACUUACUGUUACAUGAGGAUCACCCAUGUACAGGAUAUGGUCUGGAUUACAGGCCAGAAGGGUACAAGCUGC [Eli exng3 - 024] (Eterna round: R96, puzzle: Exclusion NG 3) |  | 10.3 | 11.7 | 8.12 |  | 
20 | AGGUAACAUGAGGAUCACCCAUGUCAGGAUAUCAGUAAGAUUAGAAUAGAGUAGAGUAUGAGAAGGGACUAUAU [Excluse me! 20 - Jieux - Exclusion 1] (puzzle: Exclusion 1) | 37.3 |  |  |  | 33.3 | 50
21 | GUUCCGGGAGGAUAUACAUGAGGAUCACCCAUGUUCACCAGCUUUAGCUACGACCUAUGUAGAAGGUCUGGAGA [Eternabot (L1) Solution 36] (Eterna round: R97, puzzle: Exclusion 3) |  | 46.7 | 39.7 |  |  | 
22 | UUAAAUCAUGUAGGAUAUGCGUGGAGAAACUAUGCAGAAGGACAUGAGGAUCACCCAUGUGCUUCCGUCUGCGUACAGAUGGUA [Mat - Exclusion NG 1 - Mod of JL - D8] (Eterna round: R96, puzzle: Exclusion NG 1) |  |  |  | 21.1 |  | 
23 | CCGGCUUAGGAGGAUAUAGGAGUCGAAAGACACCUAGAAGGCCUAACAUGAGGAUCACCCAUGUGUCCUACCGG [Mod of Eli 6 - Jieux - Exclusion 6] (Eterna round: R97, puzzle: Exclusion 6) |  | 78.4 | 24 |  |  | 
24 | CGAUAAAAGACAGGAUAUGAGGAGAGAGAGAGAUCAGAAGGGUCACAUGAGGAUCACCCAUGUGAGUUCUCGAUAAGAAACACC [Prohibition 53 - Jieux - Exclusion NG 1] (Eterna round: R96, puzzle: Exclusion NG 1) |  | 13.8 | 19.3 | 14.5 |  | 
25 | UCUUAUUGCAAGGAUAUGCUUUUUAUUUCUUUUGCAGAAGGUGCAACAUGAGGAUCACCCAUGUUUCCGGGUAU [JR_E6_Sub034] (puzzle: Exclusion 6) | 23.8 |  |  |  |  | 
26 | GUUUAGCAAGCGAGAUCCCACAUGAGGAUCACCCAUGUGCAUCCAGAAUUACUGGGUGCAAAAGCUCGUCUUAUAUG [mod-El /newdang-1] (Eterna round: R97, puzzle: Sensor, turn-off variant 1) |  | 71.8 | 71.8 |  |  | 
27 | AUAAGUGAUAAGGAUAUCACUAGCUUCGGCUAGUGAGAAGGUAUCACAUGAGGAUCACCCAUGUGUUCCAAUAA [Ex6/7-A1] (Eterna round: R97, puzzle: Exclusion 6) |  | 603 | 213 |  |  | 
28 | UGCCCGGUUAGAGGAUAUCUACUGUGACUGGGUUUUCCAAAACAUGAGGAUCACCCAUGUGACGGAGAGAAGGCUAGCCUUAAA [Anedanage] (Eterna round: R96, puzzle: Exclusion NG 2) |  | 26.8 | 40.1 | 31.1 |  | 
29 | CUGAAUCGAGGAUAUUGUACUGCUGACAUGAGGAUCACCCAUGUAUGUUAACUCAGCCGUCGAGAAGGCGAACAUA [BotMod 33 - Jieux - Exclusion 5] (Eterna round: R97, puzzle: Exclusion 5) |  | 12.8 | 19 |  |  | 
30 | AAUAACAAGCCGAUCCUAAACAUGAGGAUCACCCAUGUGCUCGUCUUGUAAAGUACUAUCACGAAAGUGAUAGUACA (Eterna round: R97, puzzle: Sensor, turn-off variant 1) |  | 24.5 | 18 |  |  | 
31 | UGUUGUUCAGGAUAUGAUGUAUAAUACAUGAGGAUCACCCAUGUAGAUCCUGAUUUGGCGUCAGAAGGGAAUGUUG [salish99_ex5_r4_106] (Eterna round: R97, puzzle: Exclusion 5) |  | 41 | 33.2 |  |  | 
32 | UGCUGACGAGGAUAUACAUGAGGAUCACCCAUGUUGGUUCAGCGACGAUAGUCGCAAUGUAGAAGGUGUCAGCA [E3/9-B2] (Eterna round: R97, puzzle: Exclusion 3) |  | 748 | 97.2 |  |  | 
33 | AACCUGAGGCUUUGCUUUAGGUGUACAUGAGGAUCACCCAUGUAGGAUAUGGUAGGCUUUGCUUACCAGAAGGACAUUAUGAUG [JL ENG3 1.17] (Eterna round: R96, puzzle: Exclusion NG 3) |  | 75.1 | 52.8 | 44.3 |  | 
